± gives the standard deviation of the averaged measurements.
System: ATP
Test: switch fluorescence ratio, 500 uM ATP over buffer (Cy3 cluster intensity, sum of 5 cycles each) (fold (ratio)); higher = stronger signal-on switching upon ATP binding; sequences stand for … in TCGTCGGCAGCGTCAGATGTGTATAAGAGACAGTTTTTTTTTTTTTTTTTTTTTTTTT…TC
Conditions: aptamer strand: ATP DNA aptamer (quencher-CACCTGGGGGAGTATTGCGGAGGAAGG + anchor), 100 nM annealed; ATP concentration: 500 uM
How it was run: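 Imaging in selection buffer was followed by imaging after 15 min with 500 uM ATP at 22 °C, for Cy3-labelled switching-strand clusters annealed to 100 nM quencher-labelled ATP aptamer on a modified Illumina MiSeq flow-cell. Five of these buffer/ATP cycles ran, separated by NaOH stripping and re-annealing. The fluorescence ratio per cluster is summed target-cycle over summed buffer-cycle Cy3 intensity, averaged per switch-domain sequence; clusters outside 100-1000 RFU were removed.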
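Further: ATP exposure 15 min at 22 °C before imaging.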

| Sequence | switch fluorescence ratio |
| --- | --- |
| CTTCGTGCGA | 1.14 ± 0.023 |
| GAATAAGCAA | 1.56 ± 0.025 |
| CTGATGTGTA | 0.965 ± 0.059 |
| GATTGTTGGA | 1.02 ± 0.037 |
| TTCGGGCAGG | 1.06 ± 0.054 |
| CCAGGGTGCT | 2 ± 0.39 |
| GGAATGGATA | 1 ± 0.035 |
| CGCCTTGGGG | 1 ± 0.05 |
| TAGACATCCA | 1.048 ± 0.0045 |
| TCGAAGTTTT | 0.9996 ± 0.0089 |
| ACATAGTTTG | 0.9892 ± 0.0034 |
| CGCCTTGTTC | 1.01 ± 0.012 |
| ACGTTGCGTT | 1.02 ± 0.025 |
| CCTTGTGGGA | 0.983 ± 0.011 |
| AAAAGGAAGT | 1.01 ± 0.016 |
| GAAGGTCGGC | 0.994 ± 0.036 |
| GATTTTGGCC | 0.959 ± 0.037 |
| CCATACTTAT | 1.042 ± 0.0059 |
| GGAATCGGCG | 0.988 ± 0.017 |
| TTTTTTTCGA | 1.01 ± 0.022 |
| GATATCTGGA | 1.018 ± 0.0099 |
| AATTGGCTTA | 0.997 ± 0.027 |
| TAGCTCGGGC | 1.03 ± 0.019 |
| GTGAGATGTT | 1 ± 0.016 |
| TTGAAAAAAA | 1.2 ± 0.27 |

| Sequence | switch fluorescence ratio |
| --- | --- |
| TAACCTTAGC | 1.29 ± 0.041 |
| GTAATAGTTG | 1.01 ± 0.022 |
| TAGCTAATCC | 1.08 ± 0.015 |
| TTTATCTTCC | 2.41 ± 0.065 |
| GTTTTGTGTT | 0.992 ± 0.0047 |
| TTAGGCGGGC | 1.02 ± 0.027 |
| TTGATTTTAA | 1 ± 0.014 |
| GCTGTCGGTG | 0.972 ± 0.0079 |
| GGTAATTTAG | 1.02 ± 0.015 |
| TGAGTGTGTA | 1.03 ± 0.042 |
| GTTCAAATAG | 0.9884 ± 0.0095 |
| AGATTGTGGT | 0.99 ± 0.018 |
| ATTGCTGCGA | 1.006 ± 0.0075 |
| GGGGAAAAGT | 1.01 ± 0.029 |
| GTAATCTCAG | 0.997 ± 0.022 |
| GGGAGAAGGA | 1.05 ± 0.085 |
| TTTATCCGAC | 1.15 ± 0.027 |
| GAAGCTGTAT | 1.1 ± 0.035 |
| TATGTTGCGT | 0.9975 ± 0.0078 |
| GCTGGGGGTT | 0.996 ± 0.059 |
| AATGGAAATT | 0.996 ± 0.063 |
| GATGCGGGAG | 1.0227 ± 0.00027 |
| ATGCGCTTTT | 1.03 ± 0.089 |
| GTTCGTCTTT | 1 ± 0.013 |
| GTGGATTATT | 0.993 ± 0.05 |

| Sequence | switch fluorescence ratio |
| --- | --- |
| TTTCGCGACA | 1.34 ± 0.5 |
| TTCCGGGCTG | 1 ± 0.02 |
| TGAGGAAGGG | 1.04 ± 0.099 |
| AAACTTGTAA | 1.01 ± 0.027 |
| AGCCTACGGG | 1.0466 ± 0.00084 |
| GTCGAAGGAA | 1 ± 0.011 |
| CGGAGCAGGA | 1.48 ± 0.17 |
| GGTTTAGGAA | 1 ± 0.028 |
| TGGGATTTCA | 0.979 ± 0.045 |
| TAGCTAGGTG | 1.62 ± 0.05 |
| CATGATTGCG | 0.985 ± 0.024 |
| GATATAGTAT | 0.993 ± 0.039 |
| AGCGGTCCTC | 1.09 ± 0.039 |
| TGTGTTTTTT | 0.999 ± 0.02 |
| TGGGCTGGCT | 1 ± 0.023 |
| TCAGGGGGTG | 1.05 ± 0.11 |
| TACAAGTCAA | 1.02 ± 0.017 |
| TTGGTAGCTA | 0.9889 ± 0.0098 |
| TGTTTGTAGA | 1.03 ± 0.018 |
| AGGTTAAAA | 1.03 ± 0.075 |
| CGGAGTCTGT | 1.1 ± 0.048 |
| TTGCAGCTCA | 1.78 ± 1.1 |
| ACTAGCTCTG | 1 ± 0.023 |
| AATCTTGGTT | 0.959 ± 0.032 |
| TATGGAATTT | 0.985 ± 0.009 |

| Sequence | switch fluorescence ratio |
| --- | --- |
| GGTGTTGGTT | 1.008 ± 0.0093 |
| CCGATAGGGG | 1.05 ± 0.093 |
| TTTGGAGAAT | 1.02 ± 0.025 |
| CTGGGGCGTG | 1.02 ± 0.014 |
| AGGGTAACGG | 0.995 ± 0.028 |
| GGGGGTGTCA | 0.968 ± 0.0099 |
| TCAAAATGCA | 0.9976 ± 0.0092 |
| AAGATCAATA | 0.9967 ± 0.0044 |
| AGAGGGGTTT | 0.98 ± 0.03 |
| TGTGTTTCAA | 1.03 ± 0.013 |
| TCGAGCAGCT | 1.1 ± 0.032 |
| TCTGATGGTG | 1.06 ± 0.039 |
| GAGGGGTGTC | 0.978 ± 0.03 |
| GACCTTGGTG | 1.03 ± 0.083 |
| AGGGCAGGAC | 1.41 ± 0.024 |
| ATAGATGTTG | 0.9812 ± 0.0069 |
| CGTATGAAAA | 1 ± 0.014 |
| ATGTGTTGGT | 1 ± 0.011 |
| AGATTTTGTC | 0.972 ± 0.011 |
| AGTCCTTAAG | 1 ± 0.025 |
| TATTAAGATA | 0.987 ± 0.043 |
| CGAGGGATGG | 0.977 ± 0.05 |
| TTAAGATTCT | 0.993 ± 0.037 |
| GATTGTTTTG | 1.01 ± 0.034 |
| GGAATTATTT | 1.017 ± 0.01 |

| Sequence | switch fluorescence ratio |
| --- | --- |
| CATCTAAGGC | 1.07 ± 0.049 |
| GACGGTTGTG | 1 ± 0.012 |
| GTCGGTATTC | 0.9947 ± 0.0081 |
| TTTTGGGCAA | 1.31 ± 0.21 |
| AGAGAGACAG | 0.97 ± 0.057 |
| GGGTCTGTAA | 1.42 ± 0.61 |
| AAGGCCTTCT | 0.994 ± 0.011 |
| CAGGAGCATT | 3.09 ± 1.5 |
| AGGCACGCTG | 1.02 ± 0.014 |
| GATTCGTGGC | 0.906 ± 0.14 |
| GCGTACTCAA | 1.11 ± 0.043 |
| GGATAATGCT | 0.9597 ± 0.0094 |
| AAAACTTTTT | 1.04 ± 0.051 |
| CAAGGGCGGG | 0.997 ± 0.063 |
| GAGCTATGGG | 0.983 ± 0.043 |
| TTATTACCGA | 1.056 ± 0.0098 |
| CCAGCATAGA | 1.14 ± 0.044 |
| TGAACGGGGG | 1.02 ± 0.049 |
| GGAATGGGTG | 1 ± 0.057 |
| ATTGGTCATA | 1 ± 0.028 |
| AACTCGGGGG | 0.999 ± 0.027 |
| GGGAGAGGGT | 1.02 ± 0.016 |
| TTGGCCTTCC | 2.19 ± 0.74 |
| TATGGGGAAT | 1.03 ± 0.098 |
| GCAAACTAGG | 1.11 ± 0.17 |

| Sequence | switch fluorescence ratio |
| --- | --- |
| TTGTCCCCGG | 1.58 ± 0.68 |
| AGGATCGGCG | 0.9769 ± 0.0046 |
| GGGTTAGGAT | 0.98 ± 0.029 |
| CGGGGATTTT | 1.01 ± 0.051 |
| TTCATTTCTG | 1.02 ± 0.039 |
| TGGTTTGGCC | 0.97 ± 0.018 |
| AAAGGAGTA | 1.01 ± 0.037 |
| GACTTTTCTT | 0.971 ± 0.033 |
| TGGGGGAGAT | 1.04 ± 0.1 |
| GATTAAGCGT | 0.984 ± 0.042 |
| GGAGATCAGG | 1.03 ± 0.027 |
| AGAACTAGGG | 0.974 ± 0.016 |
| GTATGCGAAG | 1.03 ± 0.053 |
| TGCGGTTTTT | 0.998 ± 0.02 |
| CCAAGTGCTG | 0.994 ± 0.018 |
| CGTTGGCGAG | 1.01 ± 0.031 |
| TTTCGTGACT | 1.02 ± 0.035 |
| AAGGAGGGGC | 1.06 ± 0.13 |
| CTGGTTAAGG | 0.957 ± 0.017 |
| ATGAATGTTA | 1.006 ± 0.0075 |
| TTTCTGTGAT | 1.004 ± 0.003 |
| GGCCGGACAT | 0.9674 ± 0.0089 |
| CCCCAATTT | 0.999 ± 0.025 |
| GGGGTGAATG | 0.974 ± 0.04 |
| CCCATGGGGG | 1.01 ± 0.028 |

| Sequence | switch fluorescence ratio |
| --- | --- |
| TAGCGGGGCG | 0.9881 ± 0.0061 |
| CGTCACCGGG | 1.11 ± 0.032 |
| CAGGGCTGGT | 0.976 ± 0.015 |
| TGGCGAAGGA | 1.018 ± 0.0019 |
| TAGGGGCCTG | 0.9831 ± 0.0098 |
| GCGGGGTAGT | 1.008 ± 0.0044 |
| TTAAGGGGG | 1.03 ± 0.012 |
| TTTCTCGTCG | 1 ± 0.014 |
| AGGCCCTAGG | 1.046 ± 0.0036 |
| AGGATTAGCT | 0.999 ± 0.042 |
| CCAGACATGA | 1.02 ± 0.012 |
| GATCGTATAT | 0.9987 ± 0.0084 |
| AGGGTGGAAT | 1.068 ± 0.01 |
| AGGCCTGCGG | 1.05 ± 0.033 |
| TGGGGTAATC | 1.03 ± 0.07 |
| ATGATACATA | 1.02 ± 0.019 |
| GCGTTTATAC | 1.96 ± 0.56 |
| CAGAGGGGTT | 1 ± 0.021 |
| TTCCGGCGGA | 1.08 ± 0.026 |
| TTTAGTTGAT | 1.01 ± 0.031 |
| TAATCAAAGT | 1.02 ± 0.018 |
| GTGGGGAAGT | 0.995 ± 0.034 |
| TTCGTTATAC | 2.29 ± 1.1 |
| TTTATCCAAT | 0.984 ± 0.037 |
| GAGTAGGGTA | 1.01 ± 0.016 |

| Sequence | switch fluorescence ratio |
| --- | --- |
| AAGGGGTCTG | 0.979 ± 0.02 |
| TCTCTGTCGG | 1.05 ± 0.011 |
| TTGGTAATAG | 1.03 ± 0.015 |
| GGGCGATGCA | 1.02 ± 0.028 |
| GTGGATAGCT | 1 ± 0.05 |
| ATCCCCGACC | 1.25 ± 0.063 |
| CCAGGTGTTA | 2.31 ± 1.8 |
| ACAGTACTTT | 1.26 ± 0.019 |
| AACGGGACGT | 0.961 ± 0.06 |
| CGTGTCAGCA | 0.9937 ± 0.0055 |
| TACTTTATTA | 1.019 ± 0.0035 |
| TTTGTTGGGA | 1.02 ± 0.013 |
| TTTTAATTT | 0.997 ± 0.042 |
| AGCATGTCGT | 1.01 ± 0.015 |
| AAAGTGAGGT | 1.01 ± 0.017 |
| ACAGATACAG | 1.07 ± 0.025 |
| TTTAAGTGTC | 1.09 ± 0.11 |
| CGGATGGGAA | 0.995 ± 0.024 |
| ATTCTCGTTA | 0.996 ± 0.0053 |
| TAGCTGATGT | 1.03 ± 0.02 |
| TCGTGTTGTT | 0.969 ± 0.021 |
| TTTGATGCAG | 0.993 ± 0.032 |
| TGGCGTGGGA | 1 ± 0.035 |
| TATAGGGGGT | 1.01 ± 0.036 |
| CTGTAGAGAG | 1.01 ± 0.063 |
